Values of other authors, collected in PMC8348223.

Columns and labels:
[1] = biological target: Bcl-XL (UniProt Q07817)
[2] = biological target: Bax (UniProt Q07812)
Sequence of Bax (Q07812 whole entry): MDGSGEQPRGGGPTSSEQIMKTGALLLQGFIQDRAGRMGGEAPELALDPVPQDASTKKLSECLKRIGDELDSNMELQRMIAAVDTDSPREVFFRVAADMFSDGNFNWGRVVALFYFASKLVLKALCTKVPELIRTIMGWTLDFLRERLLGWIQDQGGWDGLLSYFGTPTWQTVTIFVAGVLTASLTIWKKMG

Sequence of tBid (P55957 61-195): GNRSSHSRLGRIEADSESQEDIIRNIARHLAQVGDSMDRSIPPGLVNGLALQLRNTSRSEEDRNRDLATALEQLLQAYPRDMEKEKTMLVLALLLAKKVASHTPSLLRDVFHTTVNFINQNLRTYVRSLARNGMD
Sequence of Bcl-XL (Q07817 whole entry): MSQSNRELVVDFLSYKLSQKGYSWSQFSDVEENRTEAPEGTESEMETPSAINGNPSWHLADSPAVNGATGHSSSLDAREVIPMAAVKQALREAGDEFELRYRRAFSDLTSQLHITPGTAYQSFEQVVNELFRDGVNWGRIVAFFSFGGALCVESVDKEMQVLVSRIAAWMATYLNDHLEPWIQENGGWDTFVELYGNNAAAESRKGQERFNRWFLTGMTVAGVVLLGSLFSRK

- Kd [1]: 1 nM
- Kd [2]: 20 nM
Substance: tBid (from UniProt P55957)
